In US20140050738A1 (CANCER RESEARCH TECHNOLOGY, published 2014):

Experiments:
[1] = target: recombinant human TACE catalytic domain (Arg215-Val477-GlySer-His6) (human) (UniProt P78536); assay: cell-based or functional assay
[2] = target: recombinant human TACE ectodomain (Arg215-Arg651) (human) (UniProt P78536); assay: cell-based or functional assay
[3] = target: T1, recombinant human TACE ectodomain (Arg215-Arg651) (human, UniProt P78536 215-651); assay: cell-based or functional assay
[4] = target: T1, recombinant human TACE ectodomain …; assay: cell-based or functional assay; remark: listed apart in the source
[5] = target: T2, recombinant human TACE catalytic domain (Arg215-Val477-GlySer-His6) (human, UniProt P78536 215-477); assay: cell-based or functional assay
cell surface TACE = cell surface TACE (human, UniProt P78536 215-824); assay: cell-based or functional assay
[6] = target: T1, recombinant human TACE ectodomain …; assay: SPR; ratio of the KD for the isolated catalytic domain to the KD for the ectodomain
Experimental: (§1) Results represent the mean values of blank-subtracted technical triplicates per concentration variable. All experiments were performed on a Biacore T100 (GE Healthcare) at 37° C. with a flow-rate of […]. Binding constants were calculated using Biacore T100 Evaluation Software (1:1 binding model; Rmax <200 RU; tc >1×10⁸; Chi²<0.5 RU².

[7] = target: T1, recombinant human TACE ectodomain …; assay: SPR (Biacore T100, 37 C); N-TIMP-3 amine-coupled to CM5 chip, titrated TACE injected; 1:1 model
Experimental: as §1

[8] = target: T2, recombinant human TACE catalytic domain …; assay: as above
Experimental: as §1

[9] = target: T1, recombinant human TACE ectodomain …; assay: competition ELISA: immobilised TACE ectodomain pre-incubated with titrated N-TIMP-3, then probed with D1(A12) FAb [panel B]
[10] = target: T1, recombinant human TACE ectodomain …; assay: SPR (Biacore T100, 37 C): N-TIMP-3 amine-coupled to a CM5 chip, TACE ectodomain injected (traces labelled 5 to 50 nM) [panel C, upper right]
Experimental: as §1

[11] = target: T2, recombinant human TACE catalytic domain …; assay: SPR (Biacore T100, 37 C): N-TIMP-3 amine-coupled to a CM5 chip, TACE catalytic domain injected (traces labelled 0.5 to 5 nM) [panel C, upper left]
Experimental: as §1

[12] = target: T2, recombinant human TACE catalytic domain …; assay: cell-based or functional assay; remark: listed apart in the source
[13] = target: T1, recombinant human TACE ectodomain …; assay: inverted titration ELISA
[14] = target: T2, recombinant human TACE catalytic domain …; assay: inverted titration ELISA
[15] = target: T1, recombinant human TACE ectodomain …; assay: SPR (Biacore T100, 37 C); FAb amine-coupled to CM5 chip, titrated TACE injected; 1:1 model
Experimental: as §1

[16] = target: T2, recombinant human TACE catalytic domain …; assay: as above
Experimental: as §1

[17] = target: T1, recombinant human TACE ectodomain …; assay: inverted titration ELISA; ratio of the EC50 for the catalytic domain to the EC50 for the ectodomain
[18] = target: T1, recombinant human TACE ectodomain …; assay: competition ELISA: 100 nM immobilised TACE ectodomain pre-incubated with titrated D1(A12) FAb, then probed for N-TIMP-3 binding [panel A]
[19] = target: T1, recombinant human TACE ectodomain …; assay: SPR (Biacore T100, 37 C): D1(A12) FAb amine-coupled to a CM5 chip, TACE ectodomain injected (traces labelled 0.25 to 6 nM) [panel C, lower right]
Experimental: as §1

[20] = target: T2, recombinant human TACE catalytic domain …; assay: SPR (Biacore T100, 37 C): D1(A12) FAb amine-coupled to a CM5 chip, TACE catalytic domain injected (traces labelled 1 to 15 nM) [panel C, lower left]
Experimental: as §1

Sequence of cell surface TACE (P78536 215-824): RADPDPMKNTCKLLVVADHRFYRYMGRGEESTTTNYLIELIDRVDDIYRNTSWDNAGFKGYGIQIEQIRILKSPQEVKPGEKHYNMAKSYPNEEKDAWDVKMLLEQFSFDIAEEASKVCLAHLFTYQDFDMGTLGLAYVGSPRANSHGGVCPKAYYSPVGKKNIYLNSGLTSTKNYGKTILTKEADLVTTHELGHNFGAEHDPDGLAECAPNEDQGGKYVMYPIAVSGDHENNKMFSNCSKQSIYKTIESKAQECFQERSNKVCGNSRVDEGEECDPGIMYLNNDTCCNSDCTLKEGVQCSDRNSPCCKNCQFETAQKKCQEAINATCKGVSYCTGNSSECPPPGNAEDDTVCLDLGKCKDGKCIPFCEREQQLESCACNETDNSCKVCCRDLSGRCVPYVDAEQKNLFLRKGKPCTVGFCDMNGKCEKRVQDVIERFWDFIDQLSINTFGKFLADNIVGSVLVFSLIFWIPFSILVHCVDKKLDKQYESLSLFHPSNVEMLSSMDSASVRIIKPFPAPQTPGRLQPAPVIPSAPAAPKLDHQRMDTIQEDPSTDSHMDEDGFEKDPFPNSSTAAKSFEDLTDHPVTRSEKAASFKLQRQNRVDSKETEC
T1 sequence (P78536 215-651): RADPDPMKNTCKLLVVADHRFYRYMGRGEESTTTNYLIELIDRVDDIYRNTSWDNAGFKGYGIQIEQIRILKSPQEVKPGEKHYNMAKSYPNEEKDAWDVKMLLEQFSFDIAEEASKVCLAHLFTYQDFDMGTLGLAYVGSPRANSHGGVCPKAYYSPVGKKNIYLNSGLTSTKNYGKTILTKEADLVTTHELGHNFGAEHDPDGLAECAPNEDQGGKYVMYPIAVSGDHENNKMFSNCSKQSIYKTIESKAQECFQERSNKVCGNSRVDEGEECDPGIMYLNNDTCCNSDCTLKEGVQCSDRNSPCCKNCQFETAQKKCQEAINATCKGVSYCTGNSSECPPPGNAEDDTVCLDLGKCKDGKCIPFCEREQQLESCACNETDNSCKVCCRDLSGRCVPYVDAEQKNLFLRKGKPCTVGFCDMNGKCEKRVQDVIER
T2 sequence (P78536 other isoform, or with tags, fused parts or gaps limits assumed): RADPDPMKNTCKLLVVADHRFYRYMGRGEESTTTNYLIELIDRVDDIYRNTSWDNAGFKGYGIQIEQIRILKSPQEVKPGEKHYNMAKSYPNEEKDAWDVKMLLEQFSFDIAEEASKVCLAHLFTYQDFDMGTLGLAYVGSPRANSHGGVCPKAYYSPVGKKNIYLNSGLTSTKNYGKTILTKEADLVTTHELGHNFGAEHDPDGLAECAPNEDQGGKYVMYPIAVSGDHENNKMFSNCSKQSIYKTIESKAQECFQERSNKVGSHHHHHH
Sequence of recombinant human TACE ectodomain (Arg215-Arg651) (human) (P78536 215-651): as the sequence (P78536 215-651) above
Sequence of recombinant human TACE catalytic domain (Arg215-Val477-GlySer-His6) (human) (P78536 other isoform, or with tags, fused parts or gaps limits assumed): as the sequence (P78536 other isoform, or with tags, fused parts or gaps limits assumed) above

B1: D1(A12) scFv (scFv, part only; not given: linker and tags, not shown: small tags and cut ends)
scFv, part: EVQLVESGGGLVRPGGSLRLSCAASGFTFSSYAMSWVRQAPGKGLEWVSAISGSGGSTYYADSVKGRFTISRDNTKNSLYLQMTSLRADDTAFYYCVKDFGPGYGTGWFDYWGPGTLVTVSASDIQMTQSPSSLSASVGDRVTITCRASQSISSYLNWYQQKPGKAPKLLIHDASSLQSGVPSRFSGSGSGTDFTLTISSLQPEDFATYYCQQSFSIPLTFGGGTKMDIKR
IC50, solution-phase QF-peptide assay (wild-type scFv) [1]: 2.3 nM
IC50, solution-phase QF-peptide assay (wild-type scFv) [2]: 0.89 nM

B2: N-TIMP-3 (other, UniProt P35625 24-144, looked up)
chain: CTCSPSHPQDAFCNSDIVIRAKVVGKKLVKEGPFGTLVYTIKQMKMYRGFTKMPHVQYIHTEASESLCGLKLEVNKYQYLLTGRVYDGKMYTGLCNFVERWDQLTLSQRKGLNYRYHLGCN
notes: domain: N-terminal fragment; also called amino-terminal domain of TIMP-3
IC50, quenched-fluorescent (QF) peptide cleavage assay [3]: 3.2 nM
Delta (IC50 ectodomain against IC50 catalytic domain) [4]: 5.2 fold
IC50 (nM), QF-peptide assay [4]: 3.1 nM
IC50 (nM), QF-peptide assay [5]: 0.6 nM
IC50 (nM), PMA-stimulated shedding of Amphiregulin from PC3 cells (cell surface TACE): 53.3 nM
IC50 (nM), PMA-stimulated shedding of HB-EGF-AP from HeLa cells (cell surface TACE): 47.3 nM
IC50 (nM), PMA-stimulated shedding of TGF-α from IGROV-1 cells (cell surface TACE): 44.5 nM
IC50 (nM), PMA-stimulated shedding of TNF-α from TOV21G cells (cell surface TACE): 48.5 nM
IC50 (nM), mean value of the five cell shedding assays (cell surface TACE): 48.6 nM
IC50 (nM), shedding of TNFR1a from IGROV-1 cells (cell surface TACE): 49.5 nM
ΔKD (KD Cat/KD Ecto) [6]: 0.03 fold
Kd [7]: 7.22 nM
Kd [8]: 0.211 nM
IC50 (read off the curve) [9]: ~20 nM
koff [10]: 5.2e-05 s⁻¹
kon [10]: 7200 M⁻¹ s⁻¹
koff [11]: 2.1e-05 s⁻¹
kon [11]: 100000 M⁻¹ s⁻¹

B3: D1(A12) FAb (Fab, V domains shown)
VH: EVQLVESGGGLVRPGGSLRLSCAASGFTFSSYAMSWVRQAPGKGLEWVSAISGSGGSTYYADSVKGRFTISRDNTKNSLYLQMTSLRADDTAFYYCVKDFGPGYGTGWFDYWGPGTLVTVSA
VL: DIQMTQSPSSLSASVGDRVTITCRASQSISSYLNWYQQKPGKAPKLLIHDASSLQSGVPSRFSGSGSGTDFTLTISSLQPEDFATYYCQQSFSIPLTFGGGTKMDIKR
notes: Expressed in E. coli periplasm, purified on Protein G; also called monovalent D1(A12) human FAb
IC50, cleavage of GST-TNF-α (SDS-PAGE densitometry) [3]: 73.9 nM
ΔIC50 = IC50 Ecto:N-TIMP-3 / IC50 Ecto:D1(A12), QF-peptide assay [3]: 5.75 fold
IC50, cleavage of GST-TNF-α (SDS-PAGE densitometry) [12]: 125 nM
ΔIC50 = IC50 Cat:N-TIMP-3 / IC50 Cat:D1(A12), QF-peptide assay [12]: 1.35 fold
EC50 [13]: 0.92 nM
EC50 [14]: 11.1 nM
Delta (IC50 ectodomain against IC50 catalytic domain) [4]: 0.8 fold
IC50 (nM), QF-peptide assay [4]: 0.45 nM
IC50 (nM), QF-peptide assay [5]: 0.54 nM
ΔKD (KD Cat/KD Ecto) [6]: 11.3 fold
Kd [15]: 0.461 nM
Kd [16]: 5.21 nM
ΔEC50 (EC50 Cat/EC50 Ecto) [17]: 12.1 fold
IC50 (read off the curve) [18]: ~10 nM
koff [19]: 0.00024 s⁻¹
kon [19]: 530000 M⁻¹ s⁻¹
koff [20]: 0.00058 s⁻¹
kon [20]: 110000 M⁻¹ s⁻¹

B4: D1(A12) human IgG1 (antibody, V domains shown)
VH: B3 VH
VL: B3 VL
Delta (IC50 N-TIMP-3 against IC50 D1(A12) IgG1), Amphiregulin, PC3 (cell surface TACE): 5.7 fold
Delta (IC50 N-TIMP-3 against IC50 D1(A12) IgG1), HB-EGF-AP, HeLa (cell surface TACE): 6 fold
Delta (IC50 N-TIMP-3 against IC50 D1(A12) IgG1), TGF-α, IGROV-1 (cell surface TACE): 4.7 fold
Delta (IC50 N-TIMP-3 against IC50 D1(A12) IgG1), TNF-α, TOV21G (cell surface TACE): 4.3 fold
Delta (IC50 N-TIMP-3 against IC50 D1(A12) IgG1), TNFR1a, IGROV-1 (cell surface TACE): 4.7 fold
Delta, mean value of the five cell shedding assays (cell surface TACE): 5.1 fold
IC50 (nM), PMA-stimulated shedding of Amphiregulin from PC3 cells (cell surface TACE): 9.3 nM
IC50 (nM), PMA-stimulated shedding of HB-EGF-AP from HeLa cells (cell surface TACE): 7.9 nM
IC50 (nM), PMA-stimulated shedding of TGF-α from IGROV-1 cells (cell surface TACE): 9.4 nM
IC50 (nM), PMA-stimulated shedding of TNF-α from TOV21G cells (cell surface TACE): 11.2 nM
IC50 (nM), mean value of the five cell shedding assays (cell surface TACE): 9.6 nM
IC50 (nM), shedding of TNFR1a from IGROV-1 cells (cell surface TACE): 10.4 nM
